# T1: core protein gp15 (bacteriophage T7, UniProt P03725 1-747)
# T1 construct: core protein gp15 of bacteriophage T7, as it stands in the mature virion; Eight-fold ring in the core of mature T7; source: T7 virions propagated in E. coli, purified (PEG precipitation, CsCl ultracentrifugation)
# T1 sequence (looked up): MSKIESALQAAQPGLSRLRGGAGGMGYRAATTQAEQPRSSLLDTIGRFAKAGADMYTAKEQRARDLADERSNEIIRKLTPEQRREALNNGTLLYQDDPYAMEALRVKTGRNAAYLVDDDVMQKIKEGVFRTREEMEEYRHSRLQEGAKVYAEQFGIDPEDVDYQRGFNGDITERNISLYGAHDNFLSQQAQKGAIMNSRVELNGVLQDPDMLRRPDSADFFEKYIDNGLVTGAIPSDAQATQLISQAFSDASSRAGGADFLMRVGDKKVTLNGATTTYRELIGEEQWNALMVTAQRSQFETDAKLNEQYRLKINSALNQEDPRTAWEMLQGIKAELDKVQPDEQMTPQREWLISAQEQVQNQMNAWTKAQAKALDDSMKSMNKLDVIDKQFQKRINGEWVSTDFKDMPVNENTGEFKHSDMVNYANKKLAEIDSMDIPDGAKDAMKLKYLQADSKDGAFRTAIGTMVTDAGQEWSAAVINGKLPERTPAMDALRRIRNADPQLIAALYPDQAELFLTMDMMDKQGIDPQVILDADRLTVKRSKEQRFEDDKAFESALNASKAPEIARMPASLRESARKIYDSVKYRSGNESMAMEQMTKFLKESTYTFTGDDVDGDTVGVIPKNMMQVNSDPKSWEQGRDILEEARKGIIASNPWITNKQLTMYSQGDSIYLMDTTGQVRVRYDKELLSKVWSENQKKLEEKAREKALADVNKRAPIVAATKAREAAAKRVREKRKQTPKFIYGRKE
# B1: nozzle protein gp12 (natural protein, bacteriophage T7, UniProt P03747 1-794, looked up)
# chain: MALISQSIKNLKGGISQQPDILRYPDQGSRQVNGWSSETEGLQKRPPLVFLNTLGDNGALGQAPYIHLINRDEHEQYYAVFTGSGIRVFDLSGNEKQVRYPNGSNYIKTANPRNDLRMVTVADYTFIVNRNVVAQKNTKSVNLPNYNPNQDGLINVRGGQYGRELIVHINGKDVAKYKIPDGSQPEHVNNTDAQWLAEELAKQMRTNLSDWTVNVGQGFIHVTAPSGQQIDSFTTKDGYADQLINPVTHYAQSFSKLPPNAPNGYMVKIVGDASKSADQYYVRYDAERKVWTETLGWNTEDQVLWETMPHALVRAADGNFDFKWLEWSPKSCGDVDTNPWPSFVGSSINDVFFFRNRLGFLSGENIILSRTAKYFNFYPASIANLSDDDPIDVAVSTNRIAILKYAVPFSEELLIWSDEAQFVLTASGTLTSKSVELNLTTQFDVQDRARPFGIGRNVYFASPRSSFTSIHRYYAVQDVSSVKNAEDITSHVPNYIPNGVFSICGSGTENFCSVLSHGDPSKIFMYKFLYLNEELRQQSWSHWDFGENVQVLACQSISSDMYVILRNEFNTFLARISFTKNAIDLQGEPYRAFMDMKIRYTIPSGTYNDDTFTTSIHIPTIYGANFGRGKITVLEPDGKITVFEQPTAGWNSDPWLRLSGNLEGRMVYIGFNINFVYEFSKFLIKQTADDGSTSTEDIGRLQLRRAWVNYENSGTFDIYVENQSSNWKYTMAGARLGSNTLRAGRLNLGTGQYRFPVVGNAKFNTVYILSDETTPLNIIGCGWEGNYLRRSSGI
# notes: nozzle protein gp12 of bacteriophage T7, as it stands in the virion; Native virion protein; also called tail nozzle; source: T7 virions propagated in E. coli, purified (PEG precipitation, CsCl ultracentrifugation)
# B2: portal protein gp8 (natural protein, bacteriophage T7, UniProt P03728 1-536, looked up)
# chain: MAEKRTGLAEDGAKSVYERLKNDRAPYETRAQNCAQYTIPSLFPKDSDNASTDYQTPWQAVGARGLNNLASKLMLALFPMQTWMRLTISEYEAKQLLSDPDGLAKVDEGLSMVERIIMNYIESNSYRVTLFEALKQLVVAGNVLLYLPEPEGSNYNPMKLYRLSSYVVQRDAFGNVLQMVTRDQIAFGALPEDIRKAVEGQGGEKKADETIDVYTHIYLDEDSGEYLRYEEVEGMEVQGSDGTYPKEACPYIPIRMVRLDGESYGRSYIEEYLGDLRSLENLQEAIVKMSMISSKVIGLVNPAGITQPRRLTKAQTGDFVTGRPEDISFLQLEKQADFTVAKAVSDAIEARLSFAFMLNSAVQRTGERVTAEEIRYVASELEDTLGGVYSILSQELQLPLVRVLLKQLQATQQIPELPKEAVEPTISTGLEAIGRGQDLDKLERCVTAWAALAPMRDDPDINLAMIKLRIANAIGIDTSGILLTEEQKQQKMAQQSMQMGMDNGAAALAQGMAAQATASPEAMAAAADSVGLQPGI
# notes: portal protein gp8 of bacteriophage T7, as it stands in the virion; Native virion protein; also called dodecameric portal; source: T7 virions propagated in E. coli, purified (PEG precipitation, CsCl ultracentrifugation); copies: 12
# Columns and labels:
# [1] = molecular target: the molecule itself; test: cryo-EM structure; DNA-ejected T7: purified mature T7 incubated with rough LPS (250 µg/mL) at 37°C for 3 h; entire particle asymmetric 8.2 Å; portal–tail complex 3.5 Å (six-fold)
# [2] = molecular target: the molecule itself; test: cryo-EM structure; mature T7 virions, in situ; entire particle asymmetric 6.1 Å; local reconstructions of core complex 3 Å (four-fold), portal 2.5 Å (twelve-fold), portal–tail complex 2.7 Å (six-fold)
# nozzle protein gp12 = molecular target: B1; test: cryo-EM structure; DNA-ejected T7: purified mature T7 incubated with rough LPS (250 µg/mL) at 37°C for 3 h; entire particle asymmetric 8.2 Å; portal–tail complex 3.5 Å (six-fold); details: both partners purified
# portal protein gp8 = molecular target: B2; test: cryo-EM structure; mature T7 virions, in situ; entire particle asymmetric 6.1 Å; local reconstructions of core complex 3 Å (four-fold), portal 2.5 Å (twelve-fold), portal–tail complex 2.7 Å (six-fold); details: both partners purified
# core protein gp15 = molecular target: T1, core protein gp15; test: as above; details: both partners purified
Binder,stoichiometry N [1],stoichiometry N [2],binding result (nozzle protein gp12),binding result (portal protein gp8),binding result (core protein gp15)
B1,6,–,–,–,–
"fiber protein gp17 (natural protein, bacteriophage T7, UniProt P03748 1-553, looked up, tail fiber protein gp17 of bacteriophage T7, as it stands in the virion; Six trimeric fibers on the virion; also called tail fiber; source: T7 virions propagated in E. coli, purified (PEG precipitation, CsCl ultracentrifugation)) MANVIKTVLTYQLDGSNRDFNIPFEYLARKFVVVTLIGVDRKVLTINTDYRFATRTTISLTKAWGPADGYTTIELRRVTSTTDRLVDFTDGSILRAYDLNVAQIQTMHVAEEARDLTTDTIGVNNDGHLDARGRRIVNLANAVDDRDAVPFGQLKTMNQNSWQARNEALQFRNEAETFRNQAEGFKNESSTNATNTKQWRDETKGFRDEAKRFKNTAGQYATSAGNSASAAHQSEVNAENSATASANSAHLAEQQADRAEREADKLENYNGLAGAIDKVDGTNVYWKGNIHANGRLYMTTNGFDCGQYQQFFGGVTNRYSVMEWGDENGWLMYVQRREWTTAIGGNIQLVVNGQIITQGGAMTGQLKLQNGHVLQLESASDKAHYILSKDGNRNNWYIGRGSDNNNDCTFHSYVHGTTLTLKQDYAVVNKHFHVGQAVVATDGNIQGTKWGGKWLDAYLRDSFVAKSKAWTQVWSGSAGGGVSVTVSQDLRFRNIWIKCANNSWNFFRTGPDGIYFIASDGGWLRFQIHSNGLGFKNIADSRSVPNAIMVENE",–,3,–,–,–
B2,–,12,–,–,–
"core protein gp14 (natural protein, bacteriophage T7, UniProt P03724 1-196, looked up, core protein gp14 of bacteriophage T7, 196 residues as printed; modelled residues 4-86 and 101-129 in mature T7, 25-143 in DNA-ejected T7; Eight copies resolved in the mature virion, six copies in the extended channel of DNA-ejected T7; source: T7 virions propagated in E. coli, purified (PEG precipitation, CsCl ultracentrifugation)) MCWAAAIPIAISGAQAISGQNAQAKMIAAQTAAGRRQAMEIMRQTNIQNADLSLQARSKLEEASAELTSQNMQKVQAIGSIRAAIGESMLEGSSMDRIKRVTEGQFIREANMVTENYRRDYQAIFAQQLGGTQSAASQIDEIYKSEQKQKSKLQMVLDPLAIMGSSAASAYASGAFDSKSTTKAPIVAAKGTKTGR",6,–,binds,binds,binds
